The text below walks through data of paper doi:10.1101/2021.10.20.465084 (bioRxiv, 2021).

Positions of bridges follow the written chain, without caps; N, C: chain ends. No end group written: not given here. *: point of attachment. Biotin = O=C1N[C@H]2[C@H](CS[C@H]2CCCCC(=O)*)N1; βAla = NCCC(=O)O

Experiment [1] addresses T1, Prefoldin from Pyrococcus horikoshii (PhPFD-α2β4 heterohexamer, 86.4 kDa) (Pyrococcus horikoshii, UniProt O58263 1-148; O58268 1-117, S98G).
T1 sequence 1: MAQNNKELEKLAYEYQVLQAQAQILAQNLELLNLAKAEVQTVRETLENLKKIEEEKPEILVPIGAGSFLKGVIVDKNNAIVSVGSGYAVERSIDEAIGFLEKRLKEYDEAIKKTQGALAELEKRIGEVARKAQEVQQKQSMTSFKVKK
T1 sequence 2: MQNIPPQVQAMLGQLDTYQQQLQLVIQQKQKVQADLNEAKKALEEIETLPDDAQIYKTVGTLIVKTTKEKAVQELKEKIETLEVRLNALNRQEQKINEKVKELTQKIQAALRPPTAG
In words: BLI. In general terms: BLI is a label-free optical method that tracks binding on a fibre tip over time.

The target in experiment [2] is T1, Prefoldin from Pyrococcus horikoshii …. Put plainly: NMR titration.

B1: biotinylated IAPP (biotinyl-[β-Ala]-[β-Ala]-IAPP-NH2) (peptide)
peptide: {Biotin-βAla-βAla}-KCNTATCATQRLANFLVHSSNNFGAILSSTNVGSNTY-NH2
modifications: disulfide 2-7
SMILES: CC[C@H](C)[C@H](NC(=O)[C@H](C)NC(=O)CNC(=O)[C@H](Cc1ccccc1)NC(=O)[C@H](CC(N)=O)NC(=O)[C@H](CC(N)=O)NC(=O)[C@H](CO)NC(=O)[C@H](CO)NC(=O)[C@H](Cc1c[nH]cn1)NC(=O)[C@@H](NC(=O)[C@H](CC(C)C)NC(=O)[C@H](Cc1ccccc1)NC(=O)[C@H](CC(N)=O)NC(=O)[C@H](C)NC(=O)[C@H](CC(C)C)NC(=O)[C@H](CCCNC(=N)N)NC(=O)[C@H](CCC(N)=O)NC(=O)[C@@H](NC(=O)[C@H](C)NC(=O)[C@@H]1CSSC[C@H](NC(=O)[C@H](CCCCN)NC(=O)CCNC(=O)CCNC(=O)CCCC[C@@H]2SC[C@@H]3NC(=O)N[C@@H]32)C(=O)N[C@@H](CC(N)=O)C(=O)N[C@@H]([C@@H](C)O)C(=O)N[C@@H](C)C(=O)N[C@@H]([C@@H](C)O)C(=O)N1)[C@@H](C)O)C(C)C)C(=O)N[C@@H](CC(C)C)C(=O)N[C@@H](CO)C(=O)N[C@@H](CO)C(=O)N[C@H](C(=O)N[C@@H](CC(N)=O)C(=O)N[C@H](C(=O)NCC(=O)N[C@@H](CO)C(=O)N[C@@H](CC(N)=O)C(=O)N[C@H](C(=O)N[C@@H](Cc1ccc(O)cc1)C(N)=O)[C@@H](C)O)C(C)C)[C@@H](C)O
Consider B1, for which the Kd (usually the free concentration of one partner at which half of the binding sites on the other are occupied at equilibrium, for simple one-to-one binding) in experiment [1] was 16 ± 2.4 µM.
Take KCNTATCATQRLANFLVHSSNNFGAILSSTNVGSNTY (ends and bridges not checked; also: uniformly [15N]-labelled) [U-[15N]-labelled human islet amyloid polypeptide (IAPP), recombinant, monomeric]: in experiment [2], the Kd stood at 61 µM and the koff (commonly the rate constant with which the complex falls apart) is roughly 6000 s⁻¹.
